This passage reports Kd results from US20250144141A1.

Assay [1] concerns the target HLA-A*02:01/MAGE-A4 complex (human) (UniProt P04439). The experiment in a line: SPR. For orientation: SPR reads the build-up and loss of mass on a sensor chip optically.
Assay [2] has the same target. The experiment in a line: SPR (Biacore T200), pMHC on streptavidin chip, 1:1 Langmuir fit.

B1: M1302 (bispecific antibody, from a related filing, V domains shown)
VH: EVQLLESGGGSVQPGGSLRLSCTVSGFSLSNYAMSWVRQAPGKGLEWIGIVSSGGTTYYASWAKGRFTISKDTSKNTVYLQMNSLRAEDTASYYCAKDLYYGPNTDYSAANLWGQGTSVTVSS
VL: SYELTQPPSVSVSPGQTASITCTADTLSRSYASWYQQKPGQSPVLVIYRDTSRPSGIPERFSGSNSGNTATLTISGTQAMDEADYYCATRPSSGSNFQLFGGGTKLTVL
The term Kd denotes the concentration at which binding is half-saturated. Read a high Kd as a looser complex. Take B1: the Kd in assay [1] and in assay [2] was 0.6 nM throughout.

B2: M1041 (bispecific antibody, from a related filing, V domains shown)
VH: ESQVLESGGGSVQPGGSLRLSCTVSGFSLSNYAMSWVRQAPGKGLEYIGIVSSGGTTYYASWAKGRFTISKDTSKNTVYLQMNSLRAEDTASYYCAKDLYYGPTTYSAFNLWGQGTSVTVSS
VL: B1 VL
Regarding B2, the Kd was 0.25 nM in assay [1] and 0.24 nM in assay [2].
